Test results reported in article PMC4383067 (Acta Neuropathologica Communications, 2015).

Tests used:
[1] = target: Amyloid fibrils of human PrP Δ23-99 (human, UniProt P04156 100-231); assay: static light scattering kinetics; details: both partners purified
[2] = target: Amyloid fibrils of human PrP Δ100-120 (human, UniProt P04156 23-231, ∆100-120); assay: static light scattering kinetics; details: both partners purified

B1: Full-length human acetylcholinesterase (dimeric, recombinant) (enzyme)
chain: EGREDAELLVTVRGGRLRGIRLKTPGGPVSAFLGIPFAEPPMGPRRFLPPEPKQPWSGVVDATTFQSVCYQYVDTLYPGFEGTEMWNPNRELSEDCLYLNVWTPYPRPTSPTPVLVWIYGGGFYSGASSLDVYDGRFLVQAERTVLVSMNYRVGAFGFLALPGSREAPGNVGLLDQRLALQWVQENVAAFGGDPTSVTLFGESAGAASVGMHLLSPPSRGLFHRAVLQSGAPNGPWATVGMGEARRRATQLAHLVGCPPGGTGGNDTELVACLRTRPAQVLVNHEWHVLPQESVFRFSFVPVVDGDFLSDTPEALINAGDFHGLQVLVGVVKDEGSYFLVYGAPGFSKDNESLISRAEFLAGVRVGVPQVSDLAAEAVVLHYTDWLHPEDPARLREALSDVVGDHNVVCPVAQLAGRLAAQGARVYAYVFEHRASTLSWPLWMGVPHGYEIEFIFGIPLDPSRNYTAEEKIFAQRLMRYWANFARTGDPNEPRDPKAPQWPPYTAGAQQYVSLDLRPLEVRRGLRAQACAFWNRFLPKLLSATDTLDEAERQWKAEFHRWSSYMVHWKNQFDHYSKQDRCSDL
notes: also called AChE; dimeric AChE
stoichiometry N [1]: 0.5
stoichiometry N [2]: 0.5
